Experimental data published in PMC8868134, “Molecular Determinants for OMF Selectivity in Tripartite RND Multidrug Efflux Systems” (Antibiotics, 2022).

Legend:
[1] = biological target: OprM wild type (outer membrane factor) (Pseudomonas aeruginosa) (UniProt Q51487); experiment: BLI; OMF or MexB stabilised in biotinylated non-ionic amphipol (BNAPol) immobilised on streptavidin (SAX) biosensors, MexA as analyte (0-100 uM for OMFs, 0-200 uM for MexB); BLItz device, room temperature; 10 mM Tris/HCl pH 7.4, 100 mM NaCl, 0.01% NaN3, 0.05% DDM; Langmuir 1:1 fit
[2] = biological target: MexB (RND inner membrane transporter) (Pseudomonas aeruginosa) (UniProt P52002); experiment: as above
[3] = biological target: OprN (outer membrane factor) (Pseudomonas aeruginosa) (UniProt Q9I0Y7); experiment: as above
[4] = biological target: TolC (outer membrane factor of E. coli) (Escherichia coli) (UniProt P02930); experiment: as above
[5] = biological target: OprM C-terminal deletion variant OprM_(Δ473-485) (Pseudomonas aeruginosa) (UniProt Q51487); experiment: as above
[6] = biological target: MexA Q93R variant (Pseudomonas aeruginosa) (UniProt P52477); experiment: SEC + other: negative-staining EM; Superdex 200 PC 3.2/30 in 10 mM Tris/HCl pH 7.4, 100 mM NaCl, 0.01% NaN3, 0.05% DDM; peak fraction stained with uranyl acetate, single-particle average image
[7] = biological target: T1, OprM wild type (outer membrane factor) (Pseudomonas aeruginosa, UniProt Q51487 18-485); experiment: BLI; OMF or MexB stabilised in biotinylated non-ionic amphipol (BNAPol) immobilised on streptavidin (SAX) biosensors, MexA as analyte (0-100 uM for OMFs, 0-200 uM for MexB); BLItz device, room temperature; 10 mM Tris/HCl pH 7.4, 100 mM NaCl, 0.01% NaN3, 0.05% DDM; Langmuir 1:1 fit; details: both partners purified
T1 construct: OprM, outer membrane factor of MexA-MexB-OprM, Pseudomonas aeruginosa; Stabilised in biotinylated amphipol (BNAPol) for BLI and in MSP1D1/POPC nanodiscs for the tripartite complexes; also called OprMwt; OMF; source: expressed and purified from bacteria
T1 sequence: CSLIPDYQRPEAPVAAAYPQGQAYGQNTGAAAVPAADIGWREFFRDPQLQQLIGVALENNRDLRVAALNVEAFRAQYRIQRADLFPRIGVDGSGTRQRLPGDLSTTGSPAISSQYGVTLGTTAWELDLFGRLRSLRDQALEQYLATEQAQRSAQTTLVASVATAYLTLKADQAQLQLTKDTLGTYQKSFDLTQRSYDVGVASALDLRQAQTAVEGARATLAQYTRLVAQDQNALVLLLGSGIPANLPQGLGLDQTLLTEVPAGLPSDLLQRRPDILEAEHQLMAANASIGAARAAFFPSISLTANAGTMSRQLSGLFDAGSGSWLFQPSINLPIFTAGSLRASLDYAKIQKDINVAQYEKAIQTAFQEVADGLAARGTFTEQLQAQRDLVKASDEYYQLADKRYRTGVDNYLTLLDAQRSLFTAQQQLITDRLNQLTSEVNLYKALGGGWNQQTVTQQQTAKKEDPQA

With “MexA Q93R variant (from UniProt P52477 24-383) (natural protein)” the Kd [1] was 32.9 µM, the koff [1] was 0.00266 s⁻¹ and the kon [1] was 81 M⁻¹ s⁻¹. It also gave a Kd [2] of 17.4 µM, a koff [2] of 0.003 s⁻¹ and a kon [2] of 173 M⁻¹ s⁻¹. It also gave a Kd [3] of 26.9 µM, a koff [3] of 0.00238 s⁻¹ and a kon [3] of 88 M⁻¹ s⁻¹. The Kd [4] was 17.8 µM, the koff [4] was 0.00191 s⁻¹ and the kon [4] was 108 M⁻¹ s⁻¹. It also gave a Kd [5] of 25.7 µM, a koff [5] of 0.00263 s⁻¹ and a kon [5] of 102 M⁻¹ s⁻¹. The stoichiometry N [6] was 6.

“MexA wild type (periplasmic adaptor protein of MexA-MexB-OprM) (from UniProt P52477 24-383) (natural protein)” showed a Kd [3] of 20 µM, a koff [3] of 0.00358 s⁻¹ and a kon [3] of 177 M⁻¹ s⁻¹. For the same molecule, the Kd [4] was 45.8 µM, the koff [4] was 0.0058 s⁻¹ and the kon [4] was 127 M⁻¹ s⁻¹. It also gave a Kd [5] of 44 µM, a koff [5] of 0.00458 s⁻¹ and a kon [5] of 103 M⁻¹ s⁻¹.

B1: MexA wild type (periplasmic adaptor protein of MexA-MexB-OprM) (natural protein)
chain: CGKSEAPPPAQTPEVGIVTLEAQTVTLNTELPGRTNAFRIAEVRPQVNGIILKRLFKEGSDVKAGQQLYQIDPATYEADYQSAQANLASTQEQAQRYKLLVADQAVSKQQYADANAAYLQSKAAVEQARINLRYTKVLSPISGRIGRSAVTEGALVTNGQANAMATVQQLDPIYVDVTQPSTALLRLRRELASGQLERAGDNAAKVSLKLEDGSQYPLEGRLEFSEVSVDEGTGSVTIRAVFPNPNNELLPGMFVHAQLQEGVKQKAILAPQQGVTRDLKGQATALVVNAQNKVELRVIKADRVIGDKWLVTEGLNAGDKIITEGLQFVQPGVEVKTVPAKNVASAQKADAAPAKTDSKG
notes: MexA, periplasmic adaptor protein of the MexA-MexB-OprM efflux system, Pseudomonas aeruginosa; Kept in 0.05% DDM; also called MexAwt; PAP; source: expressed and purified from bacteria
For B1, the Kd [7] was 12 µM, the koff [7] was 0.00215 s⁻¹ and the kon [7] was 180 M⁻¹ s⁻¹.
